B1: GST-p107 R1R2 [not stated] / B55α (PP2A regulatory subunit B55α), endogenous in U-2 OS cells [human (endogenous in U-2 OS)] (parent complex)
chain 1: KVPTCEEVIFPNNFETGNGGNVQGHLPLMPMSPLMHPRVKEVRTDSGSLRRDMQPLSPISVHERYSSPTAGSAKRRLF
chain 2: MAGAGGGNDIQWCFSQVKGAVDDDVAEADIISTVEFNHSGELLATGDKGGRVVIFQQEQENKIQSHSRGEYNVYSTFQSHEPEFDYLKSLEIEEKINKIRWLPQKNAAQFLLSTNDKTIKLWKISERDKRPEGYNLKEEDGRYRDPTTVTTLRVPVFRPMDLMVEASPRRIFANAHTYHINSISINSDYETYLSADDLRINLWHLEITDRSFNIVDIKPANMEELTEVITAAEFHPNSCNTFVYSSSKGTIRLCDMRASALCDRHSKLFEEPEDPSNRSFFSEIISSISDVKFSHSGRYMMTRDYLSVKIWDLNMENRPVETYQVHEYLRSKLCSLYENDCIFDKFECCWNGSDSVVMTGSYNNFFRMFDRNTKRDITLEASRENNKPRTVLKPRKVCASGKRKKDEISVDSLDFNKKILHTAWHPKENIIAVATTNNLYIFQDKVN
B2: Myc-B55α wild type [not stated] / Flag-pRB [not stated] (parent complex)
chain 1: B1 chain 2
chain 2: MPPKTPRKTAATAAAAAAEPPAPPPPPPPEEDPEQDSGPEDLPLVRLEFEETEEPDFTALCQKLKIPDHVRERAWLTWEKVSSVDGVLGGYIQKKKELWGICIFIAAVDLDEMSFTFTELQKNIEISVHKFFNLLKEIDTSTKVDNAMSRLLKKYDVLFALFSKLERTCELIYLTQPSSSISTEINSALVLKVSWITFLLAKGEVLQMEDDLVISFQLMLCVLDYFIKLSPPMLLKEPYKTAVIPINGSPRTPRRGQNRSARIAKQLENDTRIIEVLCKEHECNIDEVKNVYFKNFIPFMNSLGLVTSNGLPEVENLSKRYEEIYLKNKDLDARLFLDHDKTLQTDSIDSFETQRTPRKSNLDEEVNVIPPHTPVRTVMNTIQQLMMILNSASDQPSENLISYFNNCTVNPKESILKRVKDIGYIFKEKFAKAVGQGCVEIGSQRYKLGVRLYYRVMESMLKSEEERLSIQNFSKLLNDNIFHMSLLACALEVVMATYSRSTSQNLDSGTDLSFPWILNVLNLKAFDFYKVIESFIKAEGNLTREMIKHLERCEHRIMESLAWLSDSPLFDLIKQSKDREGPTDHLESACPLNLPLQNNHTAADMYLSPVRSPKKKGSTTRVNSTANAETQATSAFQTQKPLKSTSLSLFYKKVYRLAYLRLNTLCERLLSEHPELEHIIWTLFQHTLQNEYELMRDRHLDQIMMCSMYGICKVKNIDLKFKIIVTAYKDLPHAVQETFKRVLIKEEEYDSIIVFYNSVFMQRLKTNILQYASTRPPTLSPIPHIPRSPYKFPSSPLRIPGGNIYISPLKSPYKISEGLPTPTKMTPRSRILVSIGESFGTSEKFQKINQMVCNSDRVLKRSAEGSNPPKPLKKLRFDIEGSDEADGSKHLPGESKFQQKLAEMTSTRTRMQKQKMNDSMDTSNKEEK

Variants of B1 are the subject of the first test. Description: GST pull-down, western blot; U2-OS lysates; triplicate; read off a plot.
As for chain 1 KVPTCEEVIFPNNFETGNGGNVQGHLPLMPMSPLMHPAVAEVRTDSGSLRRDMQPLSPISVHERYSSPTAGSAKRRLF [chain 1 R38A, chain 1 K40A], the ratio to parent is about 0.05.
chain 1 KVPTCEEVIFPNNFETGNGGNVQGHLPLMPMSPLMHPRVKEVRTDSGSLAADMQPLSPISVHERYSSPTAGSAKRRLF [chain 1 R50A, chain 1 R51A]: the ratio to parent was about 1.
In the case of chain 1 KVPTCEEVIFPNNFETGNGGNVQGHLPLMPMSPLMHPRVKEVATDSGSLRRDMQPLSPISVHERYSSPTAGSAKRRLF [chain 1 R43A], the ratio to parent was about 0.47.

The variants in another test derive from B2. Description: co-immunoprecipitation (anti-Myc IP), western blot quantitation; 293T cells, co-transfected; read off a plot.
chain 1 MAGAGGGNDIQWCFSQVKGAVDDDVAEADIISTVEFNHSGELLATGDKGGRVVIFQQEQENKIQSHSRGEYNVYSTFQSHEPEFDYLKSLEIEEKINKIRWLPQKNAAQFLLSTNDKTIKLWKISERDKRPEGYNLKEEDGRYRDPTTVTTLRVPVFRPMDLMVEASPRRIFANAHTYHINSISINSDYETYLSADDLRINLWHLEITDRSFNIVDIKPANMEELTEVITAAEFHPNSCNTFVYSSSKGTIRLCDMRASALCDRHSKLFEEPEDPSNRSFFSEIISSISDVKFSHSGRYMMTRDYLSVKIWDLNMENRPVETYQVHEYLRSKLCSLYENDCIFDKFACCWNGSDSVVMTGSYNNFFRMFDRNTKRDITLEASRENNKPRTVLKPRKVCASGKRKKDEISVDSLDFNKKILHTAWHPKENIIAVATTNNLYIFQDKVN [chain 1 E347A]: the ratio to parent is about 0.55.
As to chain 1 MAGAGGGNDIQWCFSQVKGAVDDDVAEADIISTVEFNHSGELLATGDKGGRVVIFQQEQENKIQSHSRGEYNVYSTFQSHEPEFDYLKSLEIEEKINKIRWLPQKNAAQFLLSTNDKTIKLWKISERDKRPEGYNLKEEDGRYRDPTTVTTLRVPVFRPMDLMVEASPRRIFANAHTYHINSISINSDYETYLSADKLRINLWHLEITDRSFNIVDIKPANMEELTEVITAAEFHPNSCNTFVYSSSKGTIRLCDMRASALCDRHSKLFEEPEDPSNRSFFSEIISSISDVKFSHSGRYMMTRDYLSVKIWDLNMENRPVETYQVHEYLRSKLCSLYENDCIFDKFECCWNGSDSVVMTGSYNNFFRMFDRNTKRDITLEASRENNKPRTVLKPRKVCASGKRKKDEISVDSLDFNKKILHTAWHPKENIIAVATTNNLYIFQDKVN [chain 1 D197K], the ratio to parent is about -0.2.
For the variant chain 1 MAGAGGGNDIQWCFSQVKGAVDDDVAEADIISTVEFNHSGELLATGDKGGRVVIFQQEQENKIQSHSRGEYNVYSTFQSHEPEFDYLKSLEIEEKINKIRWLPQKNAAQFLLSTNDKTIKLWKISERDKRPEGYNLKEEDGRYRDPTTVTTLRVPVFRPMDLMVEASPRRIFANAHTYHINSISINSDYETYLSADDLRINLWHLEITDRSFNIVDIKPANMEELTEVITAAEFHPNSCNTFVYSSSKGTIRLCDMRASALCDRHSKLFEEPEDPSNRSFFSEIISSISDVKFSHSGRYMMTRDYLSVKIWDLNMENRPVETYQVHEYLRSKLCSLYENDCIFDAFECCWNGSDSVVMTGSYNNFFRMFDRNTKRDITLEASRENNKPRTVLKPRKVCASGKRKKDEISVDSLDFNKKILHTAWHPKENIIAVATTNNLYIFQDKVN [chain 1 K345A], the ratio to parent is about 0.65.
With chain 1 MAGAGGGNDIQWCFSQVKGAVDDDVAEADIISTVEFNHSGELLATGDKGGRVVIFQQEQENKIQSHSRGEYNVYSTFQSHEPEFDYLKSLEIEEKINKIRWLPQKNAAQFLLSTNDKTIKLWKISERDKRPEGYNLKEEDGRYRDPTTVTTLRVPVFRPMDLMVEASPRRIFANAHTYAINSISINSDYETYLSADDLRINLWHLEITDRSFNIVDIKPANMEELTEVITAAEFHPNSCNTFVYSSSKGTIRLCDMRASALCDRHSKLFEEPEDPSNRSFFSEIISSISDVKFSHSGRYMMTRDYLSVKIWDLNMENRPVETYQVHEYLRSKLCSLYENDCIFDKFECCWNGSDSVVMTGSYNNFFRMFDRNTKRDITLEASRENNKPRTVLKPRKVCASGKRKKDEISVDSLDFNKKILHTAWHPKENIIAVATTNNLYIFQDKVN [chain 1 H179A], the ratio to parent was about 0.8.
As for chain 1 MAGAGGGNDIQWCFSQVKGAVDDDVAEADIISTVEFNHSGELLATGDEGGRVVIFQQEQENKIQSHSRGEYNVYSTFQSHEPEFDYLKSLEIEEKINKIRWLPQKNAAQFLLSTNDKTIKLWKISERDKRPEGYNLKEEDGRYRDPTTVTTLRVPVFRPMDLMVEASPRRIFANAHTYHINSISINSDYETYLSADDLRINLWHLEITDRSFNIVDIKPANMEELTEVITAAEFHPNSCNTFVYSSSKGTIRLCDMRASALCDRHSKLFEEPEDPSNRSFFSEIISSISDVKFSHSGRYMMTRDYLSVKIWDLNMENRPVETYQVHEYLRSKLCSLYENDCIFDKFECCWNGSDSVVMTGSYNNFFRMFDRNTKRDITLEASRENNKPRTVLKPRKVCASGKRKKDEISVDSLDFNKKILHTAWHPKENIIAVATTNNLYIFQDKVN [chain 1 K48E], the ratio to parent is about 0.95.
Turning to chain 1 MAGAGGGNDIQWCFSQVKGAVDDDVAEADIISTVEFNHSGELLATGDKGGRVVIFQQEQENKIQSHSRGEYNVYSTFQSHEPEFDYLKSLEIEEKINKIRWLPQKNAAQFLLSTNDKTIKLWKISERDKRPEGYNLKEEDGRYRDPTTVTTLRVPVFRPMDLMVEASPRRIFANAHTYHINSISINSDYETYLSADDLRINLWHLEITDRSFNIVDIKPANMEELTEVITAAEFHPNSCNTFVYSSSKGTIRLCDMRASALCDRHSKLFEEPEDPSNRSFFSAIISSISDVKFSHSGRYMMTRDYLSVKIWDLNMENRPVETYQVHEYLRSKLCSLYENDCIFDKFECCWNGSDSVVMTGSYNNFFRMFDRNTKRDITLEASRENNKPRTVLKPRKVCASGKRKKDEISVDSLDFNKKILHTAWHPKENIIAVATTNNLYIFQDKVN [chain 1 E283A], the ratio to parent is about 0.3.

Source of the values: paper PMC8575462, “PP2A/B55α substrate recruitment as defined by the retinoblastoma-related protein p107” (eLife, 2021).
